Assay results reported in paper PMC8503845.

Molecular target: SZ*-GFP-Ub4 (HA-tagged) (UniProt P0CG63)
Test: co-IP

B1: Ubx2-6xGly-3xFLAG (natural protein)
chain: MPVVNHEDSEFHLSHTEEDKLNEFQVITNFPPEDLPDVVRLLRNHGWQLEPALSRYFDGEWKGEPDQMGEPTQTSTPMAETLVPPALGPRPLLFTASLPVVRPLPANFRNDFRTIGLNGRSNTVWSMFESFSYDGNPFLFILLLIPRIINRLSATIFTFFCTLLSLHSISGGGNSGKPKISKVPKAPTRETHIPLAEILGDTKDKDAFCELKSFKPDISFNEALRIAKEEFKFMLLILVGDTYDTDTDTVDVNSKLLLEKILLNKKTLQYLRKIDNDLIIYLKCVHELEPWLVARQLGVRNTPEIFLIANVANKASHSETLPSQRLSILGKLKVNSLNRFLQSLTNVVEKYTPELVVNKTEMHELRMSREIKKLQEDAYKKSLEMDRIKAIEKEKSLKHAQDLKLNSTARQLKWLKACIDEIQPFETTGKQATLQFRTSSGKRFVKKFPSMTTLYQIYQSIGCHIYLAVYSSDPAEWSNALQDKIRQLSADDDMLCFKEGQLETATATTIEELGHIINNELTSFDLERGKLEFDFELVSPFPKYTVHPNEHMSVDQVPQLWPNGSLLVEALDEEDEEDEENEEQ
B1 gave a fold increase of binding relative to the Ubx2-SZ*-GFP complex of 10 fold.
